Columns and labels:
[1] = target: T1, CD38 on Daudi cells (UniProt P28907 1-300, limits assumed); assay: titration binding FACS on Daudi cells
T1 construct: whole, on cells
Description: (§1) Subsequently the EC50 of antibodies samples was determined by titration binding FACS on Daudi cells (for CD38 binding evaluation), on THP-1 cells (for CD33 binding evaluation), on A-431 cells (for EGFR binding evaluation), on MKN-45 cells (for CEACAMS binding evaluation) and on HEK293T (for CD276 binding evaluation). Jurkat E6-1 or HEK293T cell lines were used as negative control, as applicable.

[2] = target: T2, bio-huCD38 (human (hu), UniProt P28907 43-300, biotinylated (bio-), site not stated); assay: SPR, antigen immobilized, antibody as analyte 25-1.6 nM; at the instrument's limit
[3] = target: T2, bio-huCD38; assay: SPR, antigen immobilized, antibody as analyte 25-1.6 nM
Description: (§2) SPR analysis was performed on a Biocore 8K+, using a CFJB0944 CM5 sensor chip for immobilization and a SPR running buffer 1×HBS-EP+pH 7.4 (Cytiva, cat no. BR100669) according to the manufacturer's instructions.
(§3) In the second part of this example, antigen was immobilized on the chip and antibody dissolved in the SPR running buffer flowed over the chip.

[4] = target: T2, bio-huCD38; assay: SPR, antigen immobilized, antibody as analyte 25-1.6 nM; estimated from ka and the limit kd, indicative
Description: as §2, §3

[5] = target: T2, bio-huCD38; assay: SPR, antibody captured on chip, antigen as analyte 200-6.25 nM
Description: as §2
In the first part of this example the antibody was immobilized on the chip and the antigen dissolved in the SPR running buffer flowed over the chip.

[6] = target: target expressed in cell line for the HER2/CD276 trivalent molecules (HER2 and/or CD276; cell line not named); assay: titration binding FACS, target cell line not named
[7] = target: T3, CD276 on HEK293T cells (UniProt Q5ZPR3 29-534, limits assumed); assay: FACS titration on HEK293T cells (the line used for CD276 binding evaluation), GeoMFI (RL1-H); control cell line Jurkat E6-1
T3 construct: whole, on cells
T3 sequence (looked up): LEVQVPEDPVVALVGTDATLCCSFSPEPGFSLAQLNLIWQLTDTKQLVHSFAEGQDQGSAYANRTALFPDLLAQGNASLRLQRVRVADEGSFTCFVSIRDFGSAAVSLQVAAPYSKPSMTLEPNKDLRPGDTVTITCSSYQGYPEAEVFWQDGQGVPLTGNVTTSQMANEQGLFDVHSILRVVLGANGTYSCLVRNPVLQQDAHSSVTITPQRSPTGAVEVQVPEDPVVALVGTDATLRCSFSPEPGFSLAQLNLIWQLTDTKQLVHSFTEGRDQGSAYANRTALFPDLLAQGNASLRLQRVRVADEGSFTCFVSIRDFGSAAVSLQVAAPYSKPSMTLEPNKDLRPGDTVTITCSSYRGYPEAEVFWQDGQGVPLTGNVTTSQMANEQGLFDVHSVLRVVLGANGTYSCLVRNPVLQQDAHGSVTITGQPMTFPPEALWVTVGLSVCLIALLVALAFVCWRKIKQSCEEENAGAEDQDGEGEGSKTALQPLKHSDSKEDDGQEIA
Description: as §1

[8] = target: T4, EGFR on A-431 cells (UniProt P00533 25-1210, limits assumed); assay: titration binding FACS on A-431 cells
T4 construct: whole, on cells
Description: as §1

[9] = target: bio-huEGFR (human (hu), UniProt P00533 25-645, biotinylated (bio-), site not stated); assay: SPR, antigen immobilized, antibody as analyte 25-1.6 nM
Description: as §2, §3

B1: CD38 (bivalent)-DOTA(Fab)-p53 (bispecific antibody)
light: DVQLQESGGGLVQAGGSLRLSCTGSGRTFRNYPMAWFRQAPGKEREFVAGITWVGASTLYADFAKGRFTISRDNAKNTVYLQMNSLKPEDTAVYSCAAGRGIVAGRIPAEYADWGQGTQVTVSSGGGGSGGGGSGGGGSGGGGGSQAVVIQESALTTPPGETVTLTCGSSTGAVTASNYANWVQEKPDHLFTGLIGGHNNRPPGVPARFSGSLIGDKAALTIAGTQTEDEAIYFCALWYSDHWVIGGGTRLTVLGQPKANPTVTLFPPSSEELQANKATLVCLISDFYPGAVTVAWKADGSPVKAGVETTKPSKQSNNKYAASSYLSLTPEQWKSHRSYSCQVTHEGSTVEKTVAPTECS
heavy: DVQLQESGGGLVQAGGSLRLSCTGSGRTFRNYPMAWFRQAPGKEREFVAGITWVGASTLYADFAKGRFTISRDNAKNTVYLQMNSLKPEDTAVYSCAAGRGIVAGRIPAEYADWGQGTQVTVSSGGGGSGGGGSGGGGSGGGGGSHVKLQESGPGLVQPSQSLSLTCTVSGFSLTDYGVHWVRQSPGKGLEWLGVIWSGGGTAYNTALISRLNIYRDNSKNQVFLEMNSLQAEDTAMYYCARRGSYPYNYFDAWGRGTTVTVSSASTKGPSVFPLAPSSKSTSGGTAALGCLVKDYFPEPVTVSWNSGALTSGVHTFPAVLQSSGLYSLSSVVTVPSSSLGTQTYICNVNHKPSNTKVDKKVEPKSCGGGGSGGGGSKPLDGEYFTLQIRGRERFEMFRELNEALELKDAQAGKEPGGS
notes: Two identical CD38 VHHs, one on each Fab chain; has the p53 tetramerization domain; also called YM00004; molecule 3
[1]
  EC50: 3.45 nM
[2]
  koff: < 1e-07 s⁻¹
[3]
  kon: 121000 M⁻¹ s⁻¹
[4]
  Kd: < 0.000826 nM
[5]
  Kd: 2.77 nM
  koff: 0.00012 s⁻¹
  kon: 43200 M⁻¹ s⁻¹

B2: HER2/CD276_23F11-DOTA(humanized fab)-p53 (bispecific antibody)
light: QVQLQESGGGSVQAGGSLKLTCAASGYIFNSCGMGWYRQSPGRERELVSRISGDGDTWHKESVKGRFTISQDNVKKTLYLQMNSLKPEDTAVYFCAVCYNLETYWGQGTQVTVSSGGGSGGGSGGGSGGGGSQAVVTQEPSLTVSPGGTVTLTCGSSTGAVTASNYANWVQQKPGQAPRGLIGGHNNRPPGVPARFSGSLLGGKAALTLLGAQPEDEAEYYCALWYSDHWVIGGGTKLTVLGQPKANPTVTLFPPSSEELQANKATLVCLISDFYPGAVTVAWKADGSPVKAGVETTKPSKQSNNKYAASSYLSLTPEQWKSHRSYSCQVTHEGSTVEKTVAPTECS
heavy: QVQLVESGGGLVQAGGSLRLSCAASGRTFSRQVMGWFRQAPGKERAFVAAISGSGGTTMYAGSVKGRFTISKDNAKNMVYLQMNSLKPEDTAVYYCNTVTPYDSWGQGTQVTVSSGGGGSGGGGSGGGGSGGGGGSHVQLVESGGGLVQPGGSLRLSCAASGFSLTDYGVHWVRQAPGKGLEWLGVIWSGGGTAYNTALISRFTISRDNSKNTLYLQMNSLRAEDTAVYYCARRGSYPYNYFDAWGQGTLVTVSSASTKGPSVFPLAPSSKSTSGGTAALGCLVKDYFPEPVTVSWNSGALTSGVHTFPAVLQSSGLYSLSSVVTVPSSSLGTQTYICNVNHKPSNTKVDKKVEPKSCGGGGSGGGGSKPLDGEYFTLQIRGRERFEMFRELNEALELKDAQAGKEPGGSGGAP
notes: Three specificities (HER2 VHH, CD276 VHH, humanized DOTA Fab); also called YM00053; molecule 17
[6]
  EC50: 12.4 nM
[7]
  binding result: binds

B3: HER2/CD276_23A04-DOTA(humanized fab)-p53 (bispecific antibody)
light: B2 light
heavy: QVQLVESGGGLVQSGDSLRLSCGWSGRTFSGYAMGWFRKAPGKDYEFVAAISVSETKTRYADSIRGRFTISRDNAKNTVYLQMNSLKPEDTAVYYCAASRSGVVGGREPTRYNYWGQGTQVTVSSGGGGSGGGGSGGGGSGGGGGSHVQLVESGGGLVQPGGSLRLSCAASGFSLTDYGVHWVRQAPGKGLEWLGVIWSGGGTAYNTALISRFTISRDNSKNTLYLQMNSLRAEDTAVYYCARRGSYPYNYFDAWGQGTLVTVSSASTKGPSVFPLAPSSKSTSGGTAALGCLVKDYFPEPVTVSWNSGALTSGVHTFPAVLQSSGLYSLSSVVTVPSSSLGTQTYICNVNHKPSNTKVDKKVEPKSCGGGGSGGGGSKPLDGEYFTLQIRGRERFEMFRELNEALELKDAQAGKEPGGSGGAP
notes: Three specificities (HER2 VHH, CD276 VHH, humanized DOTA Fab); also called YM00052; molecule 18
[6]
  EC50: 90.2 nM
[7]
  binding result: binds

B4: EGFR-DOTA(fab)-p53 (bispecific antibody)
light: EVQLVESGGGLVQPGGSLRLSCVASGFTFADYAMSWVRQAPGKGLQWVSSISYNGDTTYYAESMKDRFTISRDNAKNTLYLQMNSLKSEDTAVYYCASSGSYYPGHFESWGQGTQVTVSSGGGGSGGGGSGGGGSGGGGGSQAVVIQESALTTPPGETVTLTCGSSTGAVTASNYANWVQEKPDHLFTGLIGGHNNRPPGVPARFSGSLIGDKAALTIAGTQTEDEAIYFCALWYSDHWVIGGGTRLTVLGQPKANPTVTLFPPSSEELQANKATLVCLISDFYPGAVTVAWKADGSPVKAGVETTKPSKQSNNKYAASSYLSLTPEQWKSHRSYSCQVTHEGSTVEKTVAPTECS
heavy: HVKLQESGPGLVQPSQSLSLTCTVSGFSLTDYGVHWVRQSPGKGLEWLGVIWSGGGTAYNTALISRLNIYRDNSKNQVFLEMNSLQAEDTAMYYCARRGSYPYNYFDAWGRGTTVTVSSASTKGPSVFPLAPSSKSTSGGTAALGCLVKDYFPEPVTVSWNSGALTSGVHTFPAVLQSSGLYSLSSVVTVPSSSLGTQTYICNVNHKPSNTKVDKKVEPKSCGGGGSGGGGSKPLDGEYFTLQIRGRERFEMFRELNEALELKDAQAGKEPGGS
notes: The assays name bio-huEGFR and A-431 cells; also called YM00010; molecule 9
[8]
  EC50: 51.5 nM
[9]
  Kd: 2.12 nM
  koff: 0.000985 s⁻¹
  kon: 464000 M⁻¹ s⁻¹

B5: CD38(Bivalent)-DOTA(fab)-p53_C-Term (bispecific antibody)
light: QAVVIQESALTTPPGETVTLTCGSSTGAVTASNYANWVQEKPDHLFTGLIGGHNNRPPGVPARFSGSLIGDKAALTIAGTQTEDEAIYFCALWYSDHWVIGGGTRLTVLGQPKANPTVTLFPPSSEELQANKATLVCLISDFYPGAVTVAWKADGSPVKAGVETTKPSKQSNNKYAASSYLSLTPEQWKSHRSYSCQVTHEGSTVEKTVAPTECSGGGGSGGGGSGGGGSGGGGGSDVQLQESGGGLVQAGGSLRLSCTGSGRTFRNYPMAWFRQAPGKEREFVAGITWVGASTLYADFAKGRFTISRDNAKNTVYLQMNSLKPEDTAVYSCAAGRGIVAGRIPAEYADWGQGTQVTVSS
heavy: HVKLQESGPGLVQPSQSLSLTCTVSGFSLTDYGVHWVRQSPGKGLEWLGVIWSGGGTAYNTALISRLNIYRDNSKNQVFLEMNSLQAEDTAMYYCARRGSYPYNYFDAWGRGTTVTVSSASTKGPSVFPLAPSSKSTSGGTAALGCLVKDYFPEPVTVSWNSGALTSGVHTFPAVLQSSGLYSLSSVVTVPSSSLGTQTYICNVNHKPSNTKVDKKVEPKSCGGGGSGGGGSGGGGSGGGGGSDVQLQESGGGLVQAGGSLRLSCTGSGRTFRNYPMAWFRQAPGKEREFVAGITWVGASTLYADFAKGRFTISRDNAKNTVYLQMNSLKPEDTAVYSCAAGRGIVAGRIPAEYADWGQGTQVTVSSGGGGSGGGGSKPLDGEYFTLQIRGRERFEMFRELNEALELKDAQAGKEPGGS
notes: Two identical C-terminal CD38 VHHs; has the p53 tetramerization domain; also called YM00015; molecule 14
[1]
  EC50: 3.24 nM
[2]
  koff: < 1e-07 s⁻¹
[3]
  kon: 187000 M⁻¹ s⁻¹
[4]
  Kd: < 0.000535 nM
[5]
  Kd: 1.89 nM
  koff: 6.41e-05 s⁻¹
  kon: 33800 M⁻¹ s⁻¹
